Data taken from publication PMC7710607.

Target: ACSL1 (UniProt P41216)
Assay: GST-TBK1 binding to bead-bound flag-ACSL1
Settings: reference: ΔC (1-657) wild type; sites S172

Substance: mouse TBK1 (mTBK1, GST-TBK1) C-terminal truncated, 1-657 (from UniProt Q9WUN2) ΔC (1-657) S172A
- binding against the reference: stronger
